In patent publication US11214614B2, “LTBP complex-specific inhibitors of TGFβ and uses thereof” (Scholar Rock, Inc., priority 2019, dated 2022):
Residue numbers refer to the chain shown, from its start.

Tests used:
[1] = tested on: phosphorylation of Smad2/3 in kidney of Col4a3−/− mice; experiment: Alport (Col4a3−/−) mouse model, pSMAD2/3 ELISA on whole kidney lysates; assay type: in vivo; conditions: single dose 30 mg/kg i.p., 48 hours prior to sacrifice, 11 week old Col4a3−/− mice
Text: The murine Col4a3 −/− model is an established genetic model of autosomal recessive Alport syndrome. Alport mice lack a functional collagen 4A3 gene (Col4A3−/−) and therefore cannot form normal type IV collagen trimers, which require a3, a4, and a5 chains. Col4a3−/− mice develop fibrosis in the kidney consistent with renal fibrosis in human patients, including interstitial fibrosis and tubular atrophy, and Col4a3−/− mice develop end-stage renal disease (ESRD) between 8 and 30 weeks of age, depending on the genetic background of the mouse. The structural and functional manifestation of renal pathology in Col4a3−/− mice, combined with the progression to ESRD make Col4a3−/− mice an ideal model to understand kidney fibrosis. […]
It is well documented that TGFβ receptor activation leads to a downstream signaling cascade of intracellular events, including phosphorylation of Smad2/3. Therefore, the ability of SR-AB42 and SR-AB63 treatment to inhibit TGFβ signaling was assessed in kidney lysate samples by measuring relative phosphorylation levels of Smad2/3 as assayed by ELISA (Cell Signaling Technologies) according to the manufacturer's instructions. […] FIG. 20B is a graph showing the amount of phosphorylated SMAD2/3 (pSMAD2/3) as determined by ELISA and FIG. 20C is a graph showing the amount of total […] (tSMAD2/3) protein as determined by ELISA.

[2] = target: huLRRC33 proTGFβ1 (Homo sapiens, UniProt P01137); experiment: Octet binding of immobilized cycle 2 antibodies; set-up: modified human kappa light chain signal peptide (N); Histidine tag (C); conditions: antibody immobilized (loading sample)
Chain of huLRRC33 proTGFβ1 (P01137 30-390): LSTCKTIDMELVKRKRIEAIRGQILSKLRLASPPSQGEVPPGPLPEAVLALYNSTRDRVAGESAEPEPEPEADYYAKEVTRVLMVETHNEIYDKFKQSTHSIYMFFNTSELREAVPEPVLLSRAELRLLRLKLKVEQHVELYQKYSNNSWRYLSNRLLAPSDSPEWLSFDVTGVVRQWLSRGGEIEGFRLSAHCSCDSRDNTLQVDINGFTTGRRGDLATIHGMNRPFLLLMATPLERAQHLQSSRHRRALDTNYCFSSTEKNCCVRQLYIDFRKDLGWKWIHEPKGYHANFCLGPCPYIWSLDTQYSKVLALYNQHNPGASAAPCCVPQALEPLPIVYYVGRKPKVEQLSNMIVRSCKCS
Chain of huLRRC33 proTGFβ1 (Q86YC3 with tags, fused parts or gaps partner limits assumed): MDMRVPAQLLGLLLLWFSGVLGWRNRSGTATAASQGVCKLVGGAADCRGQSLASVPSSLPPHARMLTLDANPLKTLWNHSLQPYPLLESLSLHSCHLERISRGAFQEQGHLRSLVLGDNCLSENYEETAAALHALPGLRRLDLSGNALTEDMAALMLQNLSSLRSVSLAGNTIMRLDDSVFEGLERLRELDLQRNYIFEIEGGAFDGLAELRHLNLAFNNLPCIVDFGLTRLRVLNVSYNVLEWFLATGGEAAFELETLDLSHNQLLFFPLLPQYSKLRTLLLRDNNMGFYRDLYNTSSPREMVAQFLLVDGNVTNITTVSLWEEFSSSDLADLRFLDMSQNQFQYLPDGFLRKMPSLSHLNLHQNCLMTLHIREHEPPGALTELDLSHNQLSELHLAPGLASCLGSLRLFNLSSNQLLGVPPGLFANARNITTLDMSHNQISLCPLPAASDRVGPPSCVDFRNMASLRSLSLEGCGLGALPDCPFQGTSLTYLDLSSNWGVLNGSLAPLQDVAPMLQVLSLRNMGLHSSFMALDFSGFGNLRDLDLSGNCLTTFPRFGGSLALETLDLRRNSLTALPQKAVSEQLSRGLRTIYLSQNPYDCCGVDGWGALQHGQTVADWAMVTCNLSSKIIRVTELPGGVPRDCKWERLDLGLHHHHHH
Text: A modified proTGFβ1 complex (proTGFβ1 C4S) in which the cysteine residue at position 4 of the pro-domain has been substituted with a serine residue (described in WO 2014/182676) was used to assess antibody binding to C4S antigen by Octet. Cycle 2 antibodies were immobilized and tested against 3 antigens. As shown in the Tables below, robust antibody binding to LTBP-1 proTGFβ1 antigen (Table 23) and proTGFβ1C4S antigen was observed (Table 24), while binding to LRRC33 proTGFβ1 antigen was not observed (Table 25).

[3] = tested on: proTGFβ1 presented by endogenous LTBP1/3 in LN229 cells; experiment: Endogenous LTBP caga assay: LN229 cells transfected with human proTGFβ1 only, CAGA12 luciferase reporter cells; assay type: cell-based; conditions: endogenous presenting molecules
Chain of proTGFβ1 presented by endogenous LTBP1/3 in LN229 cells (P01137 30-390): as the sequence (P01137 30-390) above

B1: SR-AB42: cycle 3 antibody, lineage SR-AB23; CDRs SEQ ID NO: 166-171; HCVR SEQ ID NO: 318, LCVR SEQ ID NO: 319 (antibody, V domains shown)
VH: QVQLVESGGGVVQPGRSLRLSCAASGFTFRSYVMHWVRQAPGKGLEWVAVISHEGSLKYYADSVKGRFTISRDNSKNTLYLQMNSLRAEDTAVYYCARPRIAARRGGFGYWGQGTLVTVSS
VL: NFMLTQPHSVSESPGKTVTISCTRSSGNIDNNYVQWYQQRPGSSPTTVIYEDNQRPSGVPDRFSGSIDSSSNSASLTISGLKTEDEADYYCQSYDYDTQGVVFGGGTKLTVL
[1]
  pSmad2/3 signaling (pSMAD2/3:tSMAD2/3) in whole kidney lysates: significantly inhibit pSmad2/3 signaling

B2: SR-AB23: second-round (CDR-H3 mutagenesis) antibody, lineage SR-AB14; CDRs SEQ ID NO: 116-121 (antibody, V domains shown)
VH: B1 VH
VL: B1 VL with Y96S, T98N
[2]
  Response, binding to human LRRC33 proTGFb1: 0.0233 nm
[3]
  Inhibition of TGFβ1 activation (TGFβ activity, luciferase): improved potency

B3: SR-AB22: second-round (CDR-H3 mutagenesis) antibody, lineage SR-AB14; CDRs SEQ ID NO: 108-113 (antibody, V domains shown)
VH: B1 VH with R98V
VL: B1 VL with Y96S, T98N
[2]
  Response, binding to human LRRC33 proTGFb1: 0.1329 nm
[3]
  Inhibition of TGFβ1 activation (TGFβ activity, luciferase): improved potency

B4: SR-AB63: cycle 3 antibody, lineage SR-AB26; CDRs SEQ ID NO: 292-297; HCVR SEQ ID NO: 360, LCVR SEQ ID NO: 361 (antibody, V domains shown)
VH: QLQLQESGPGLVKPSETLSLTCTVSGGSIRSSSYYWGWIRQPPGKGLEWIGSISYSATTYYNPSLKSRVTISVDTSKNQFSLKLSSVTAADTAVYYCAGDPSYDSIAGMQVWGQGTTVTVSS
VL: DIQLTQSPSSLSASVGDRVTITCRASQSISSYLNWYQQKPGKAPKLLIYAASNLQSGVPSRFSGSGSGTDFTLTISSLQPEDFATYYCQQSFDWPLTFGGGTKVEIK
[1]
  pSmad2/3 signaling (pSMAD2/3:tSMAD2/3) in whole kidney lysates: significantly inhibit pSmad2/3 signaling
